# Data reported in publication PMC10187921, “A fully human neutralizing monoclonal antibody targeting a highly conserved epitope of the human cytomegalovirus glycoprotein B” (PLOS ONE, 2023).
# B1: EV2038 (IgG1 lambda), fully human neutralizing monoclonal antibody (antibody, V domains shown)
# VH: QVQLQQWGAGLLKPSETLSLTCAVYGGSFSGYYWGWIRQPPGKGLEWIGEINHSGSANSNPSLKSRVTMSVDTSKNQFSLKVSSVTAADTAVYFCARVTRDLEWIPGDYYMDVWGKGTTVTVSS
# VL: QSVLTQPPSASGTPGQRVSISCSGSLSNIGTNYVYWYQQLPGTAPKLLIFKNNQRPSGVPDRFSGSKSGTSASLAISGLRSEDEADYYCAAWDDSLNGYVFGTGTKVTVL
# notes: heavy chain framework 1: only the Kabat CDRs are printed; heavy chain CDR1 (Kabat); heavy chain CDR2 (Kabat); heavy chain CDR3 (Kabat); constant region of human IgG1 heavy chain; light chain framework 1: only the Kabat CDRs are printed; light chain CDR1 (Kabat); light chain CDR2 (Kabat); light chain CDR3 (Kabat); constant region of a human lambda light chain; IgG1 lambda; the frameworks are not; …
# What was measured:
# [1] = biological target: glycoprotein B of eight Japanese clinical isolates (2009-889, I88-55, I144-44, H12-42, H12-43, H1-10, H1-15, MDU-1) (human cytomegalovirus)
# [2] = biological target: T1, Recombinant AD-1 protein from HCMV gB (strain AD169, amino acids 541-658), fused with glutathione … (Human cytomegalovirus, strain AD169, UniProt P06473); assay: SPR; Biacore T200; EV2038 (0.33 μg/mL) captured by anti-IgG (Fc) antibody on a CM5 chip; recombinant AD-1 injected as analyte; 1:1 binding model; conditions: both partners purified
# T1 construct: antigenic domain 1 (AD-1) of human cytomegalovirus glycoprotein B, strain AD169, amino acids 541-658, UniProtKB P06473; The printed size of 40.7 kDa fits the fusion with GST still on it; no cleavage is told; Vector pGEX4T; also called recombinant antigenic domain 1; source: E. coli BL21 (DE3), solubilized with 0.5% sarkosyl, purified (SDS-PAGE, electroelution, dialysis against PBS)
# T1 sequence (P06473 541-658): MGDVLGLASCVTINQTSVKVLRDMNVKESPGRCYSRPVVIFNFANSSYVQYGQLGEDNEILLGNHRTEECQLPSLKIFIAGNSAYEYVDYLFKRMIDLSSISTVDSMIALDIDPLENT
# [3] = biological target: glycoprotein B of 42 Japanese clinical isolates (39 tested in MRC-5, 24 in ARPE-19 cells) (human cytomegalovirus)
# [4] = biological target: T2, Human cytomegalovirus glycoprotein B (strain AD169) on infectious virions (Human cytomegalovirus, strain AD169, UniProt P06473); assay: SPR; Biacore T200; infectious virions (strain AD169, 1.6 × 10^8 plaque-forming units/mL) trapped by captured MSL-109 (anti-gH/gL); EV2038 injected as analyte; 1:1 binding model; conditions: one partner purified
# T2 construct: on infectious virions (not on cells): native glycoprotein B of human cytomegalovirus strain AD169 in the viral envelope; UniProtKB P06473 is printed for strain AD169 gB; also called gB; HCMV virions; source: HCMV strain AD169 virions, crude virus purification sample, purified via ultracentrifugation
# T2 sequence (P06473 32-906): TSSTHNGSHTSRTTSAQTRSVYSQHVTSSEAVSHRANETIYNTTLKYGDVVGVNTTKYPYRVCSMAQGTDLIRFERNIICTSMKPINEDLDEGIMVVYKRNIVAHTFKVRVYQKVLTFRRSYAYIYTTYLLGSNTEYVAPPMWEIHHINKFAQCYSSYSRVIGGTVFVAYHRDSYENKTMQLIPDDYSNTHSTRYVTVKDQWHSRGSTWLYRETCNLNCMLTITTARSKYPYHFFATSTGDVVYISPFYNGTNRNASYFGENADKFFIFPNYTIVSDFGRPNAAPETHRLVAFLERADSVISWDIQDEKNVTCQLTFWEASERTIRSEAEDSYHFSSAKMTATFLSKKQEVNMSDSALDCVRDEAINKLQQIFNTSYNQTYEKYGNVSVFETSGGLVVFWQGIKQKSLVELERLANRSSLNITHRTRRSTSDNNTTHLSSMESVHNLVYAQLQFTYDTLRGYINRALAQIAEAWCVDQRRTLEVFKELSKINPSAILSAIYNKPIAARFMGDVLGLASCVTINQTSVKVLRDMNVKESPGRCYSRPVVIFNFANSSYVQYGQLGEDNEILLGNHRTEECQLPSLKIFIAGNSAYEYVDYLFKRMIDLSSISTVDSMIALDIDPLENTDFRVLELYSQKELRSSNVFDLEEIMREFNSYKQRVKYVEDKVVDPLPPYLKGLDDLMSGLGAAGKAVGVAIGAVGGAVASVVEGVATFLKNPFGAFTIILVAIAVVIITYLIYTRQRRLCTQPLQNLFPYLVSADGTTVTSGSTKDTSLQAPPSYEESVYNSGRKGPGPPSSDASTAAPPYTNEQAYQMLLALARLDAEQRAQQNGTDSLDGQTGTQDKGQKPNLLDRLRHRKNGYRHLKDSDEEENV
# [5] = biological target: T2, Human cytomegalovirus glycoprotein B …; assay: cell-based or functional assay
binder,measurement,setting,value
B1,"IC50 of inhibition of viral cell-to-cell spread, focus expansion assay, eight clinical isolates in ARPE-19 cells",[1],1 to 3.1 µg/mL
same,"IC90 of inhibition of viral cell-to-cell spread, focus expansion assay, eight clinical isolates in ARPE-19 cells",[1],13 to 19 µg/mL
same,Kd,[2],5.73 nM
same,koff,[2],0.000279 s⁻¹
same,"IC50 of neutralisation of HCMV infection, plaque reduction assay, 24 clinical isolates in ARPE-19 cells",[3],0.013 to 0.105 µg/mL
same,"IC50 of neutralisation of HCMV infection, plaque reduction assay, 39 clinical isolates in MRC-5 cells",[3],0.013 to 0.103 µg/mL
same,"IC90 of neutralisation of HCMV infection, plaque reduction assay, 24 clinical isolates in ARPE-19 cells",[3],0.208 to 1.03 µg/mL
same,"IC90 of neutralisation of HCMV infection, plaque reduction assay, 39 clinical isolates in MRC-5 cells",[3],0.215 to 0.901 µg/mL
same,Kd,[4],0.224 nM
same,koff,[4],0.00113 s⁻¹
same,"IC50 of neutralisation of HCMV infection (strain AD169) after two passages of virus grown with mAbs, preliminary study",[5],0.08 to 0.18 µg/mL
same,"IC50 of neutralisation of HCMV infection (strain AD169) in MRC-5 cells, without anti-CMV agents",[5],~0.1 µg/mL
